Values of other authors, collected in publication PMC6669380.

Molecular target: SLP-76 RxxK motif (Homo sapiens) (UniProt Q13094)

- Kd: 0.0145 µM
Substance: Gads C-terminal SH3 (from UniProt O75791)
